Source: US20190375786A1, “STABLE PEPTIDES AND METHODS OF USE THEREOF” (Fred Hutchinson Cancer Research Center, priority 2016, published 2019)

Assays:
Type in all cases: physicochemical
[1] = Resistance to reduction by DTT, RP-HPLC; conditions: 10 mM DTT; HPLC vs non-reduced peptide
How it was run: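 Peptide (12.5 μg from a 2 mg/ml stock, or 0.015 mM final in PBS) was held 30 min at room temperature with or without 10 mM DTT. Reduced and non-reduced forms were compared by C-18 RP-HPLC using a 5–45% acetonitrile/0.1% TFA gradient over 10 min, with detection at 214 and 280 nm.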

[2] = Resistance to reduction by reduced glutathione (GSH), HPLC; conditions: 10 mM reduced glutathione (GSH); HPLC vs non-reduced peptide
Experimental: This example describes stability of designed or engineered peptides under reducing conditions. Peptides that are designed or engineered to interact with one or more target proteins in the cell, such as proteins in the nucleus, are exposed to reducing conditions in the cytosolic compartment of cells. Thus, it is advantageous for peptides of this disclosure to display stability in reducing conditions. Stability of peptides of this disclosure was tested in 10 mM DTT and 10 mM GSH. GSH is a more physiologically relevant reducing agent for testing peptide stability in intracellular conditions. An example of a peptide-target protein interaction is a peptide binding to a TEAD protein.

[3] = Circular dichroism thermal stability, heating 20° C. to 95° C.; conditions: 10 mM phosphate buffer pH 7.4; heated 20° C. to 95° C.
Experimental: (§1) Protein secondary structures were assessed using Circular Dichrosim (CD). CD spectra were measured with a Jasco J-720W spectropolarimeter using a 1.0 mm path length cell. Protein samples in 10 mM phosphate buffer (pH=7.4) were at 25-30 μM protein concentration. Samples were analyzed at wavelength ranges of […]. Data were expressed in terms of relative ellipticity [θ]; (mdeg). To determine thermal stability of proteins, samples were subjected to incremental increase in temperature at a ramp of 2° C./min from 20° C. to 95° C. Stability and protein unfolding were monitored at 220 and 215 for α-helix and β-sheet secondary structures, respectively. Data are expressed in terms of relative ellipticity [θ], reported in mdeg. For SEQ ID NO: 43 and its point mutant variants, no changes to the α-helix-dominated structure were observed upon heating up to 95° C. […] Additionally, protein melting temperature (Tm) determination was performed by monitoring protein unfolding using SYPRO Orange dye (Molecular Probes). In brief, 0.1 mg/mL protein sample in 20 μL total volume PBS buffer were mixed with 24, of 10× SYPRO Orange dye. Dye intercalation into the hydrophobic protein core following protein unfolding was assayed using the C1000 Touch Thermal Cycler with CFX96 Deep Well Real-Time System (BioRad). Samples were heated from 20° C. to 95° C. with stepwise increments of 0.5° C. per minute and a 5 sec hold step for every point, followed by fluorescence reading. Tm were calculated by analyzing the derivatives of Relative florescence Units (RFU). FIG. 17D illustrates this SYPRO Orange melting assay of Peptides.

[4] = SYPRO Orange melting assay; conditions: heating from 20° C. to 95° C.
Experimental: as §1

For “GSPDEYIERAKECCKKQDIQCCLRIFDESKDPNVMLICLFCW [SEQ ID NO: 43]”, the “resistance to reduction by DTT (in words)” value [1] was “partially resistant”, the “resistance to GSH reducing conditions” value [2] was “resistant” and the “CD secondary structure signature before (Pre) and after (Post) incubation at 95° C.” value [3] was “identical”. The “melting temperature (Tm)” value [4] was “no melting temperature could be determined”.
